Data on 19 molecules can be found in patent US20260049140A1 (JANUX THERAPEUTICS, published 2026).

T1: TROP2 (human, UniProt P09758 27-274, limits assumed, biotinylated (site not stated))
T1 construct: also called TROP2-biotin; tumor-associated calcium signal transducer 2
T1 sequence (looked up): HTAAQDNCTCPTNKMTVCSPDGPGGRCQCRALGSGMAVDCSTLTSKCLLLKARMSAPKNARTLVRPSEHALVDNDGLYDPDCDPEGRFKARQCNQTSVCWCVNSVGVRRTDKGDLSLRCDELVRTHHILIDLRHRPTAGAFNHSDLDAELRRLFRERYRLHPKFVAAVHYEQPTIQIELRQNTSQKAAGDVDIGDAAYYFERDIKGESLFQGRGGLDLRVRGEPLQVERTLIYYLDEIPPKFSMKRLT

T2: human TROP2-biotin (human, UniProt P09758 27-274, limits assumed, biotinylated (site not stated))
T2 construct: also called hTROP2-Biotin; Biotinylated TROP2
T2 sequence (looked up): T1 sequence (looked up)

T3: Cyno CD3 (Antigen was biotinylated for capture on the plate (per card); site of biotin and any vendor tag not stated in the passages seen.)
T3 construct: also called cynomolgus CD3
T3 chain: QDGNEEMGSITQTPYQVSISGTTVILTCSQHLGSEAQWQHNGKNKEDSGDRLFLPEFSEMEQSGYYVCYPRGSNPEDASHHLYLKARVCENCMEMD

B1: Peptide-5 (peptide)
peptide: SECLVDLQSDPCYW
modifications: cysteine pairing not given here; also: biotinylated when captured in binding ELISA
notes: also called 1454
B2: TCE-30 (bispecific antibody)
light: DIQLTQSPSSLSASVGDRVSITCKASQDVSIAVAWYQQKPGKAPKLLIYSASYRYTGVPDRFSGSGSGTDFTLTISSLQPEDFAVYYCQQHYITPLTFGAGTKVEIKRTVAAPSVFIFPPSDEQLKSGTASVVCLLNNFYPREAKVQWKVDNALQSGNSQESVTEQDSKDSTYSLSSTLTLSKADYEKHKVYACEVTHQGLSSPVTKSFNRGEC
heavy: not shown
notes: anti-CD3 scFv H101A; anti-TROP2 Fab F108A
B3: TCE-29 (bispecific antibody)
light: B2 light
heavy: not shown
notes: anti-CD3 scFv wt; anti-TROP2 Fab F108A
B4: TCE-29 (anti-CD3 scFv wt; anti-TROP2 (F108A) HC) (bispecific antibody)
light: B2 light
heavy: not shown
notes: scFv-Fab; the entry already carries the mutation
B5: TCE-31 (bispecific antibody)
light: B2 light
heavy: not shown
notes: anti-CD3 scFv F104A; anti-TROP2 Fab F108A
B6: TCE-32 (anti-CD3 scFv F240A; anti-TROP2 (F108A) HC) (bispecific antibody)
light: B2 light
heavy: not shown
notes: scFv-Fab; the entry already carries the mutations
B7: TCE-34 (anti-CD3 scFv, several mutations; anti-TROP2 (F108A) HC) (bispecific antibody)
light: B2 light
heavy: not shown
notes: as for B6
B8: TCE-37 (bispecific antibody)
light: B2 light
heavy: not shown
notes: anti-CD3 scFv F104A; anti-TROP2 Fab D109A
B9: TCE-35 (anti-CD3 scFv wt; anti-TROP2 (D109A) HC) (bispecific antibody)
light: B2 light
heavy: not shown
notes: as for B4
B10: TCE-32 (bispecific antibody)
light: B2 light
heavy: not shown
notes: anti-CD3 scFv F240A; anti-TROP2 Fab F108A
B11: TCE-34 (bispecific antibody)
light: B2 light
heavy: not shown
notes: anti-CD3 scFv N30Q, I109V, G172A, V231A; anti-TROP2 Fab F108A
B12: TCE-36 (bispecific antibody)
light chain (anti-TROP2 LC wt): B2 light
heavy chain (anti-CD3 scFv H101A fused to anti-TROP2 D109A Fab HC): not shown
notes: not in the list MOLECULES; also called TCE-36 (anti-CD3 scFv H101A; anti-TROP2 (D109A) HC)
B13: TCE-38 (bispecific antibody)
light chain (anti-TROP2 LC wt): B2 light
heavy chain (anti-CD3 scFv F240A fused to anti-TROP2 D109A Fab HC): not shown
notes: not in the list MOLECULES; also called anti-TROP2 (D109A) HC)
B14: TCE-31 (anti-CD3 scFv F104A; anti-TROP2 (F108A) HC) (bispecific antibody)
light: B2 light
heavy: not shown
notes: as for B6
B15: TCE-30 (anti-CD3 scFv H101A; anti-TROP2 (F108A) HC) (bispecific antibody)
light: B2 light
heavy: not shown
notes: as for B6
B16: Peptide-4 (peptide)
peptide: DWCWYSPDNDGLCD
modifications: cysteine pairing not given here; also: biotinylated when captured in binding ELISA
notes: also called 1446

One assay addresses T4, TCE-1.
T4 construct: anti-CD3 scFv wt fused to anti-TROP2 Fab HC wt
Nature of the assay: competition ELISA: peptide titrated and pre-incubated with a constant concentration of TCE-1; TCE-1 bound to plate-captured biotinylated CD3 is detected (blocked ligand: CD3). On the technique in general: ELISA stands for enzyme-linked immunosorbent assay.

In another assay the target is T5, TCE-15.
T5 construct: anti-CD3 scFv W112A; anti-TROP2 Fab wt; also called 3087
Nature of the assay: competition ELISA, peptide titrated vs TCE binding to captured CD3.

Another assay has as its target T6, TCE-19.
T6 construct: anti-CD3 scFv W233A; anti-TROP2 Fab wt; also called 3091
The assay is described as above.

The target of a further assay is T7, TCE-4.
T7 construct: anti-CD3 scFv H101A; anti-TROP2 Fab wt; also called 3076
Described as above.

The target in the next assay is T8, TCE-3.
T8 construct: anti-CD3 scFv R100A; anti-TROP2 Fab wt; also called 3075
Described as above.

For assay [1], the target named is T1, TROP2. The assay can be described thus: ELISA, biotinylated TROP2 captured on neutravidin coated plates, HRP secondary antibody, OD 450 nm.
The target of assay [2] is T1, TROP2. The description is as above. The source holds these as a separate data set.
Assay [3] has as its target T1, TROP2. The assay is described as above. This is another data set of the same source.
Assay [4] deals with T2, human TROP2-biotin. The assay can be described thus: ELISA, biotinylated TROP2 captured on neutravidin plate, TCE titrated.
A further assay deals with T3, Cyno CD3. The assay can be described thus: Cyno CD3 binding ELISA, TCE titrated.
The target of assay [5] is T1, TROP2. Nature of the assay: ELISA, biotinylated TROP2 captured on neutravidin coated plates, HRP secondary antibody, OD 450 nm. The source holds these as a separate data set.
Assay [6] has as its target T9, human CD3ε-biotin (human, UniProt P07766 23-126, limits assumed, biotinylated (site not stated)).
T9 construct: also called CD3E-bio; CD3E-biotin
Nature of the assay: ELISA, biotinylated CD3ε captured on neutravidin plate, TCE titrated; table row head prints EC50 without a unit, unit taken from the axis Log [TCE nM].

In assay [7] the target is T9, human CD3ε-biotin. Nature of the assay: Human CD3 binding ELISA, TCE titrated.
Assay [8] addresses T9, human CD3ε-biotin. Nature of the assay: ELISA, biotinylated CD3ε captured on neutravidin plate, TCE titrated.
Assay [9] deals with T9, human CD3ε-biotin. Described as above. This is another data set of the same source.
Assay [10] concerns the target T2, human TROP2-biotin. Nature of the assay: ELISA, biotinylated TROP2 captured on neutravidin plate, TCE titrated; table row head prints EC50 without a unit, unit taken from the axis Log [TCE nM].
Assay [11] deals with T10, CD3ε (human, UniProt P07766 23-126, limits assumed, biotinylated (site not stated)).
T10 construct: also called CD3-biotin; CD3E
The assay can be described thus: ELISA, biotinylated CD3 captured on neutravidin coated plates, HRP secondary antibody, OD 450 nm.

Assay [12] concerns the target T10, CD3ε. The assay is described as above. The source holds these as a separate data set.
Assay [13] deals with T10, CD3ε. The description is as above. This is another data set of the same source.
In another assay the target is T11, TCE-6.
T11 construct: anti-CD3 scFv N103A; anti-TROP2 Fab wt; also called 3078
Nature of the assay: competition ELISA, peptide titrated vs TCE binding to captured CD3.

The assay “TCE-32” has as its target B10. The assay is described as above.
The assay “TCE-30” concerns the target B2. The description is as above.

Like-named read-outs stand apart in the source and are kept apart here. Ends that are not written are not given here. A value given as a limit tells only on which side of the number the result lay.

One may read the IC50 as the point on the concentration scale where inhibition reaches its midpoint. Read a high IC50 as weaker potency in that assay. For the molecule GSQCLGPEWEVCPY (cysteine pairing not given here; also: biotinylated when captured in ELISA, also called 1419) [Peptide-2], in the assay with TCE-1, the “IC50 (read off the curve)” value was around 0.3 µM. Further, the IC50 in the assay with TCE-15 and with TCE-19 was above 100 µM each time.

For the molecule B1, in the assay with TCE-1, the “IC50 (read off the curve)” value was around 3 µM. Moreover, the IC50 with TCE-4 and with TCE-3 was above 100 µM in each case.

A word on the EC50 (read off the curve): it is the midpoint of the concentration-response curve. Lower therefore signals an effect from little substance. Regarding B2, in the assay with TROP2 [1], the “EC50 (read off the curve)” value is around 2 nM.

As to B3, the “EC50 (read off the curve)” value was around 0.9 nM with TROP2 [2] and around 2 nM with TROP2 [3].

Usually EC50 stands for the concentration that produces a half-maximal response. A higher EC50 goes with a need for much substance. In the case of B4, the EC50 with human TROP2-biotin [4] is 1.15 nM; in the assay with Cyno CD3, 0.184 nM.

Take B5: the 50% effective concentration (EC50 (read off the curve)) with TROP2 [5] is around 0.7 nM.

For the molecule B6, the EC50 is 0.482 nM with Cyno CD3, 0.938 nM with human CD3ε-biotin [6] and 0.531 nM with human CD3ε-biotin [7].

On to B7, for which the EC50 turned out to be 0.354 nM with Cyno CD3, 0.382 nM with human CD3ε-biotin [7], 0.376 nM with human CD3ε-biotin [8] and 0.356 nM in the assay with human CD3ε-biotin [9].

In the assay with human TROP2-biotin [10], B8 came in with an EC50 of 0.893 nM. For the same molecule, the “EC50 (read off the curve)” value with CD3ε [11] is around 0.6 nM; with TROP2 [1] it was around 0.7 nM.

In turn, B9 yielded a half-maximal effective concentration (EC50) in the assay with human TROP2-biotin [4] of 1.07 nM.

In the case of B10, the “EC50 (read off the curve)” value with TROP2 [5] was around 0.7 nM; in the assay with CD3ε [12], around 0.6 nM.

For the molecule B11, the entries for the “EC50 (read off the curve)” value with TROP2 [3] and with CD3ε [13] were around 2 nM and around 0.6 nM, respectively.

B12: the EC50 with human TROP2-biotin [10] is 1.38 nM; in the assay with human CD3ε-biotin [8] it was 0.595 nM.

In the assay with human CD3ε-biotin [8], B13 displayed an EC50 of 1.09 nM.

Regarding B14, the figures for the EC50 with human TROP2-biotin [4], with Cyno CD3 and with human CD3ε-biotin [7] were 1.02 nM, 0.671 nM and 0.761 nM, respectively.

B15 gave an EC50 with human TROP2-biotin [4] of 1.28 nM.

Take B16: in the assay with TCE-1, the “IC50 (read off the curve)” value is around 2 µM. In addition, the IC50 with TCE-15 is above 100 µM; with TCE-4, above 100 µM; in the assay with TCE-6 it was 4.59 µM.

As to YLCGPDADETLACY (cysteine pairing not given here; also: biotinylated when captured in ELISA) [Peptide-12], the IC50 with TCE-32 and in the assay with TCE-30 was above 100 µM throughout.

With QGCGTIADPEPHCW (cysteine pairing not given here; also: biotinylated when captured in ELISA, also called 1363) [Peptide-1], the IC50 in the assay with TCE-15, with TCE-3 and in the assay with TCE-6 was above 100 µM each time.
